The target in the test is Recombinant Bcl-XL tagged with the glutathione S-transferase (GST) moiety [GST: P08515]. Nature of the test: competition ELISA: peptide against immobilised BAK BH3 peptide for GST-Bcl-XL. (An ELISA detects its analyte on a solid surface through an enzyme-linked reagent.)

Among the data in US7193044 are fold reduction of affinity against the unphosphorylated BAD BH3 peptide values, retold here.

Non-standard residues stand in square brackets, D forms with d. No end group written: not given here. pS = N[C@@H](COP(=O)(O)O)C(=O)O

Recombinant Bcl-XL tagged with the glutathione S-transferase (GST) moiety [GST: P08515], sequence (Q07817 whole entry): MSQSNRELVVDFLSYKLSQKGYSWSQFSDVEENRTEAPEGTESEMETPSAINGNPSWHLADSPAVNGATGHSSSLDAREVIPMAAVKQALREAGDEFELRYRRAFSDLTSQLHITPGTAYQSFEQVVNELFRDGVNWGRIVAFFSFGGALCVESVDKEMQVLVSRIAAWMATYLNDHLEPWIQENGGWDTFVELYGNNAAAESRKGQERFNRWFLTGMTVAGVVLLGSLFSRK

B1: Synthetic BAD BH3 peptide (residues 143-168) phosphorylated on Ser155 (peptide)
peptide: AAQRYGRELRRM[pS]DEFEGSFKGLPRP
As for B1, the fold reduction of affinity against the unphosphorylated BAD BH3 peptide is over 100 fold.
